Biological target: CH-296 retronectin fragment (UniProt P02751)
Experiment: cell-based or functional assay

Sequence of UniProt P02751 (P02751 1361-2107): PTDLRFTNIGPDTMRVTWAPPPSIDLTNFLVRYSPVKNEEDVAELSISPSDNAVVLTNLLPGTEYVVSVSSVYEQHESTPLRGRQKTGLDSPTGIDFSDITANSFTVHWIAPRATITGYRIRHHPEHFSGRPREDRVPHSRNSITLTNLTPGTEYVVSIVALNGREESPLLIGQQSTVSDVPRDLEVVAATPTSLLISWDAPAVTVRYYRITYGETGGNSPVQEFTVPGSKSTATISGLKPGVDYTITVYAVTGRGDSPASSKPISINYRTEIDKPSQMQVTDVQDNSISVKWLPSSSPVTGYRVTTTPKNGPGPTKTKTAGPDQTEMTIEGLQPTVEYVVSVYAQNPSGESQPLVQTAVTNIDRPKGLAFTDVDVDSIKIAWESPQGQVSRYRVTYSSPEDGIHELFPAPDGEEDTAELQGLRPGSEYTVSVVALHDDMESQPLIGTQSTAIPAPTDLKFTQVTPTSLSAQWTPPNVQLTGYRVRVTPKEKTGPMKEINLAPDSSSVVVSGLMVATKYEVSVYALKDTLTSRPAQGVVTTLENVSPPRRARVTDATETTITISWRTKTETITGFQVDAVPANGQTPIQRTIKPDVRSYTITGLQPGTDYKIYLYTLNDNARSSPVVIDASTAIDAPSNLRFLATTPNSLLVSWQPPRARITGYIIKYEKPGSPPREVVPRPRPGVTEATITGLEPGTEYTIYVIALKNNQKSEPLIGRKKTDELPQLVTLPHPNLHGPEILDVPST

Question: RD114/TR chimeric glycoprotein was tested. Which transduction efficiency of human CD34+ cells on retronectin-coated plates (% GFP+ cells) did it give?
Answer: 10 fold

From US20060257366A1
